Columns and labels:
Type in all cases: cell-based, human
[1] = test system: ARPE-19 cells; experiment: Prevention of TGF-β-induced fibrotic deformation of ARPE-19 cells (microscopy, Western blotting, qPCR, immunofluorescence); settings: FIG. 3
Procedure: A retinal pigment epithelial cell line (ARPE-19; ATCC, USA) was cultured in a 5% CO2 incubator at 37° C. using Dulbecco's modified Eagle's medium and Ham's F12 Nutrient Mixture medium (DMEM/F12; Welgene, Korea), containing 1% antibiotics (Gibco, USA) and 10% fetal bovine serum (FBS; HyClone, USA). The medium was replaced with fresh medium every other day. When the cells were cultured to a certain extent in a culture plate, these cells were subcultured using 0.25% trypsin/0.02% EDTA (Gibco, USA). […]
Cells that had been grown by being seeded in a 12-well culture plate, each well containing a coverslip, were fixed with 4% formaldehyde and treated with 0.2% Triton X-100 for 10 minutes. […] Observation was performed under a fluorescence microscope.
RNA was extracted using TRIZOL™ (Invitrogen, USA) reagent. cDNA was synthesized using a reverse transcription kit (Promega, USA), and real-time polymerase chain reaction was performed using SYBR® green (TAKARA, Japan). The level of RNA was analyzed by analyzing the amplification reaction curve, and this analysis was performed in triplicate or quadruplicate. The relative expression level of genes was quantified by normalization to 18s rRNA. […]

[2] = test system: ARPE-19 cells; experiment: Restoration of already formed TGF-β-induced fibrotic deformation of ARPE-19 cells; settings: then agent (restoration); for expression of mesenchymal (α-SMA, vimentin, fibronectin) and epithelial (ZO-1, occludin) marker proteins (Western blotting): TGF-β 2 days, FIGS. 6c, 8b, 12b, 13b
Procedure: The cultured cells were divided into the following two groups and subjected to drug treatment: one group in which induction of differentiation of retinal pigment epithelial cells into mesenchymal cells was suppressed; and the other group in which retinal pigment epithelial cells that had been induced to differentiate into mesenchymal cells were caused to return to normal retinal pigment epithelial cells. The ARPE-19 cells were grown in serum-free medium for 24 hours. Then, the cells were treated with AdCCN5 at 50 multiplicity of infection (MOI) followed by 10 ng/ml of TGF-β2 (PeproTech Korea, Korea), or treated with TGF-β2 followed by AdCCN5.
For in vitro experiments, the cultured ARPE-19 cells were washed with phosphate buffered saline (PBS), and suspended with a mixed solution of cold RIPA buffer (1% NP-40, 50 mM Tris-HCl [pH 7.4], 150 mM NaCl, and 10 mM NaF) and a protease inhibitor cocktail (Roche, Germany). The cell suspension was subjected to treatment with an ultrasonic generator for 5 minutes at an amplitude of 5% with a cycle of 2 seconds on/1 second off.
Cells that had been grown by being seeded in a 12-well culture plate, each well containing a coverslip, were fixed with 4% formaldehyde and treated with 0.2% Triton X-100 for 10 minutes. The cells were blocked with a diluted solution of 5% bovine serum albumin in PBS, and incubated with anti-ZO-1 and anti-α-SMA antibodies overnight at 4° C. For secondary antibodies, the cells were incubated for 1 hour at room temperature with FITC- or Alexa Fluor 594-conjugated secondary antibodies, TEXAS RED®-conjugated phalloidin (Invitrogen, USA) for f-actin staining, and Hoechst 33342 (Invitrogen, USA) for nuclear staining. The results were observed using an epifluorescence microscope (Zeiss, Germany). For retinal flat-mount experiments, the eyes were enucleated from the mice, and each eye was fixed in 4% formaldehyde for 24 hours. […] Observation was performed under a fluorescence microscope. […]

[3] = test system: ARPE-19 cells; experiment: Anti-VEGF drug-induced fibrotic deformation of ARPE-19 cells, simultaneous treatment with CCN5 protein; settings: for expression of CCN2 on treatment with anti-VEGF drug / expression of CCN5 on treatment with anti-VEGF drug: bevacizumab 0.25 mg/ml, ranibizumab 0.125 mg/ml, aflibercept 0.5 mg/ml
[4] = test system: ARPE-19 cells; experiment: Bevacizumab-induced fibrotic deformation of ARPE-19 cells and prevention by AdCCN5; settings: bevacizumab 0.25 mg/ml
Procedure: Recombinant TGF-β2 was purchased from PeproTech Korea (Korea). ARPE-19 cells were treated with the recombinant TGF-β2 at 10 ng/ml. Recombinant EGF and FGF-2 were purchased from Invitrogen (USA). ARPE-19 cells were treated with 1 mM of EGTA, 10 ng/ml of EGF, and 20 ng/ml of FGF-2.
Use of an anti-VEGF drug that inhibits neovascularization is a widely used method for treating wet age-related macular degeneration. However, this method has a side effect of causing morphological and functional changes in RPE cells. […] The specific experimental process is shown in Example 2, and this experimental process is schematically illustrated in FIG. 11a. The experimental results are illustrated in FIGS. 11b to 11d.

[5] = test system: ARPE-19 cells; experiment: Induction of fibrotic deformation of ARPE-19 cells by TGF-β
Procedure: The mature ARPE-19 cells form a cobblestone-like monolayer and express marker proteins specific for epithelial cells. The cultured ARPE-19 cells were treated with TGF-β at 5 ng/ml or 10 ng/ml for 2 days (FIG. 1a). The results are illustrated in FIGS. 1b to 1d.

[6] = TGF-β 5 or 10 ng/ml, 2 days, FIG. 1c

Cc1cccc(-c2nn(C(=S)Nc3ccccc3)cc2-c2ccnc3ccccc23)n1 [A83-01, reference compound]
TGF-β-induced fibrotic deformation (Western blotting), CCN5 compared with A83-01 [1]: inhibited TGF-β-induced fibrotic deformation of ARPE-19 cells | expression of mesenchymal (α-SMA, vimentin, fibronectin) and epithelial (ZO-1, occludin) marker proteins (Western blotting) [2]: failed to normalize abnormal changes in expression of mesenchymal marker proteins (α-SMA, vimentin, and fibronectin) and epithelial marker proteins (ZO-1 and occludin)

aflibercept: anti-VEGF drug sold under the brand name EYLEA
expression of CCN2 on treatment with anti-VEGF drug ([3]; FIG. 14b): increased expression of CCN2 | expression of CCN5 on treatment with anti-VEGF drug ([3]; FIG. 14b): decreased expression of CCN5

bevacizumab: anti-VEGF monoclonal antibody drug sold under the brand name Avastin
morphology of ARPE-19 cells on treatment with bevacizumab ([4]; FIG. 11b): the morphology of the cells changed | expression of CCN5 on treatment with bevacizumab (Western blotting) ([4]; FIG. 11c): the expression of CCN5 is decreased by bevacizumab | expression of CCN5 on treatment with anti-VEGF drug ([3]; FIG. 14b): decreased expression of CCN5

ranibizumab: anti-VEGF monoclonal antibody fragment (Fab) sold under the brand name LUCENTIS
expression of CCN2 on treatment with anti-VEGF drug ([3]; FIG. 14b): increased expression of CCN2 | expression of CCN5 on treatment with anti-VEGF drug ([3]; FIG. 14b): decreased expression of CCN5

B1: CCN5 protein: purified human-derived CCN5 protein, extracellular matrix-related protein of the CCN family, also called WISP-2 (protein)
chain: QLCPTPCTCPWPPPRCPLGVPLVLDGCGCCRVCARRLGEPCDQLHVCDASQGLVCQPGAGPGGRGALCLLAEDDSSCEVNGRLYREGETFQPHCSIRCRCEDGGFTCVPLCSEDVRLPSWDCPHPRRVEVLGKCCPEWVCGQGGGLGTQPLPAQGPQFSGLVSSLPPGVPCPEWSTAWGPCSTTCGLGMATRVSNQNRFCRLETQRRLCLSRPCPPSRGRSPQNSAF
modifications: CCN5(except signal peptide, human)
TGF-β-induced fibrotic deformation (Western blotting), CCN5 compared with A83-01 [1]: inhibited TGF-β-induced fibrotic deformation of ARPE-19 cells to the same level as A83-01 | expression of mesenchymal and epithelial marker proteins (Western blotting) ([3]; simultaneous treatment with anti-VEGF drugs): inhibited increased expression of mesenchymal marker proteins (α-SMA, vimentin, and fibronectin) and decreased expression of epithelial marker proteins (ZO-1 and occludin) | anti-VEGF drug-induced decrease of CCN5 and increase of CCN2 expression, effect of CCN5 protein ([3]; simultaneous treatment with anti-VEGF drugs, FIG. 14b): this phenomenon was inhibited by CCN5 protein | tight junction, expression of α-SMA and formation of f-actin (immunofluorescence staining) ([3]; simultaneous treatment with anti-VEGF drugs, FIG. 14c): inhibited disruption of tight junction, increased expression of α-SMA, and formation of f-actin | expression of mesenchymal (α-SMA, vimentin, fibronectin) and epithelial (ZO-1, occludin) marker proteins (Western blotting) [2]: inhibited increased expression of mesenchymal marker proteins (α-SMA, vimentin, and fibronectin) and restored decreased expression of epithelial marker proteins (ZO-1 and occludin) to a normal level | tight junction (immunofluorescence staining) ([2]; TGF-β, FIGS. 6d, 12c, 13c): restore the tight junction, disrupted by TGF-β, to normal

B2: TGF-β: Recombinant TGF-β2 (PeproTech), trigger for fibrotic deformation of RPE cells (protein, UniProt P61812 303-414, looked up)
Transforming growth factor …: ALDAAYCFRNVQDNCCLRPLYIDFKRDLGWKWIHEPKGYNANFCAGACPYLWSSDTQHSRVLSLYNTINPEASASPCCVSQDLEPLTILYYIGKTPKIEQLSNMIVKSCKCS
α-SMA, f-actin and tight junction after treatment with TGF-β (immunofluorescence staining) ([5]; FIG. 1d): the expression of α-SMA and f-actin is increased and the formation of tight junction is inhibited | morphology of ARPE-19 cells after treatment with TGF-β ([5]; TGF-β 5 or 10 ng/ml, 2 days, FIG. 1b): acquired a fibroblastic morphology | expression level of CCN5 protein after treatment with TGF-β [5, 6]: significantly decreased the expression level of human-derived CCN5 protein | expression of mesenchymal and epithelial marker proteins after treatment with TGF-β [5, 6]: the expression of the mesenchymal marker proteins, α-SMA, vimentin, fibronectin, and type I collagen, was increased, whereas the expression of the epithelial marker proteins, ZO-1 and occludin, was significantly decreased

— patent US12377130B2, “Pharmaceutical composition comprising CCN5 as active ingredient, for preventing or treating retinal diseases” (OLIVES BIOTHERAPEUTICS INC., priority 2018, dated 2025)
